From patent US20210238276A1 (INTEGRAL MOLECULAR, published 2021)
Changes are numbered by the printed parent chain.

B1: AB101 (scFv)
scFv: ALTQPSSVSANPGETVKITCSGSSNSYGWYQQKSPGSAPVTVIYYNDKRPSDIPSRFSGSKSDSTHTLTITGVRAEDEAVYFCGSYDSTYVGIFGAGTTLTVLGQSSRSSGGGGSSGGGGSAVTLDESGGGLQTPGGTLSLVCKASGFTFSSNAMGWVRQAPGKGLEWVAGISSDGRYTKYGSAVKGRATISRDNGQSTVRLQLNNLRAEDTGTYFCAKAFGNNYRRIYAGQIDAWGHGTEVIVSS
notes: Chicken-derived clone used as a control; the four lead clones were tested as scFv-human IgG1 Fc; also called MAb AB101
B2: AB108 (Fc fusion)
scFv: ALTQPSSVSANLGGTVKITCSGSSGSYGWYQQKAPGSAPVTLIYRNDKRPSDIPSRFSGSESGSTGTLTITGVQAEDEAVYFCGGYDSSAGYAAFGAGTTLTVLGQSSRSSGGGGSSGGGGSAVTLDESGGGLQTPGGALSLVCKASGFTFSSHGMGWVRQAPGKGLEWVGSISTGRYTFYAPAVKGRATISRDNGQSTLRLQLNNLRAEDTGTYYCTKCAGLNGCGGGEIDAWGHGTEVIVSS
notes: Bivalent scFv-Fc; also called MAb AB108; not shown: Fc fragment of human IgG1, cloned in frame with the scFv
B3: AB111 (Fc fusion)
scFv: ALTQPSSVSANPGETVKITCSGSGSWYGWFQQKSPGSAPVTVIYSNDKRPSDIPSRFSGSKSGSTSTLTITGVQVEDEAVYYCGNWDIFGAGTTLTVLGQSSRSSGGGGSSGGGGSAVTLDESGGGLQTPGGALSLVCKASGFTFSSHGMGWVRQAPGKGLEWVASISTGRYTFYAPAVKGRATISRDNGQSTVRLQLNNLRAEDTATYYCTKCAGLNGCGGGEIDAWGHGTEVIVSS
notes: Bivalent scFv-Fc; also called MAb AB111; not shown: Fc fragment of human IgG1, cloned in frame with the scFv

Legend:
Experiment in all cases: flow cytometry, alanine-scan library in HEK-293T
hsGLUT4 S310A = molecular target: T1, hsGLUT4 S310A (human, UniProt P14672 1-509)
T1 sequence: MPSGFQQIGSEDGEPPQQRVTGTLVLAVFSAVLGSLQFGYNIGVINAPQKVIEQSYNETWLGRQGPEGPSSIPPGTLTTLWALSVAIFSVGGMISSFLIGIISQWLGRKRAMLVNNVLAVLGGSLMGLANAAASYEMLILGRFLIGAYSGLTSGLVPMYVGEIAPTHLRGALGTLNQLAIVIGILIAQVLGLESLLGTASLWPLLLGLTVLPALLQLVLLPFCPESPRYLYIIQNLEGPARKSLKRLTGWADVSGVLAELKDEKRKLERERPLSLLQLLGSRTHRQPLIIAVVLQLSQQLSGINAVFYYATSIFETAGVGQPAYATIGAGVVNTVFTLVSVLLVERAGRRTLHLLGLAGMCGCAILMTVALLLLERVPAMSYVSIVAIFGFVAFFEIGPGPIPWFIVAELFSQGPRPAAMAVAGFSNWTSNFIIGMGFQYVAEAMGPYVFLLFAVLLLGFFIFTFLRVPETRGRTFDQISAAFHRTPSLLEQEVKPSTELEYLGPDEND
Protocol: (§1) Because of the state-dependence of the isolated MAbs, we next wished to understand the mechanism by which each MAb could recognize GLUT4 in its different conformations. The residues required for binding of each MAb were determined using shotgun mutagenesis comprehensive alanine scanning (Davidson E & Doranz B J (2014) A High-Throughput Shotgun Mutagenesis Approach to Mapping B-cell Antibody Epitopes. Immunology, which is hereby incorporated by reference in its entirety). All residues of hsGLUT4 were individually mutated to alanine, with existing alanines changed to serines. Mutations were obtained for 508 of the 509 residues of GLUT4 (excluding the initiating methionine). The entire mutation library was transfected into human HEK-293T cells in a 384-well array format (one clone per well) and assessed for immunoreactivity using high-throughput flow cytometry.
(§2) HEK-293T cells were transfected by CaPO₄ with plasmids in 6-well culture plates (Falcon) at 750,000 cells/well. At 48 hours post transfection, cells were stained with anti-V5 and anti-GLUT4 MAbs (purified scFv, 2 μg/ml) followed by biotinylated goat anti-mouse or human antibody (1:500) and streptavidin-PerCP (1:500). Fluorescence was detected using an Intellicyt high-throughput flow cytometer (HTFC; Intellicyt, Albuquerque, N. Mex.). For cell permeabilization, cells were treated with saponin at 0.1% in PBS for 20 minutes. To discriminate intact (live) and permeabilized (dead) cells without the use of detergent, propidium iodide (PI) was added to HEK-293T cells at 1 ug/ml just prior to flow cytometry. Where indicated, cytochalasin B (Sigma) was used at a final concentration of 10 uM and phloretin (Sigma) was used at a final concentration of 100 uM, each added in 10% NGS for 30 minutes prior to antibody staining as well as included with the primary antibody.

hsGLUT4 I313A = molecular target: T2, hsGLUT4 I313A (human, UniProt P14672 1-509)
T2 sequence: T1 sequence with A310S, I313A
Protocol: as §1, §2

hsGLUT4 F405A = molecular target: T3, hsGLUT4 F405A (human, UniProt P14672 1-509)
T3 sequence: T1 sequence with A310S, F405A
Protocol: as §1, §2

hsGLUT4 G504A = molecular target: T4, hsGLUT4 G504A (human, UniProt P14672 1-509)
T4 sequence: T1 sequence with A310S, G504A
Protocol: as §1, §2

Molecule | % of binding to wild type GLUT4 (hsGLUT4 S310A) [%] | % of binding to wild type GLUT4 (hsGLUT4 I313A) [%] | % of binding to wild type GLUT4 (hsGLUT4 F405A) [%] | % of binding to wild type GLUT4 (hsGLUT4 G504A) [%]
1F8 (antibody) | 93 | 85 | 107 | 120
B1 | 101 | 94 | 106 | 8
B2 | 97 | 39 | 103 | 141
B3 | 130 | 106 | 118 | 172
